Test results taken from FireProtDB (doi:10.1093/protein/12.10.841).
Where “and” joins values, the source holds several entries; their conditions need not be identical. Equal values may be shown once.

B1: Lysozyme C, P61626 (parent)
chain: MKALIVLGLVLLSVTVQGKVFERCELARTLKRLGMDGYRGISLANWMCLAKWESGYNTRATNYNAGDRSTDYGIFQINSRYWCNDGKTPGAVNACHLSCSALLQDNIADAVACAKRVVRDPQGIRAWVAWRNRCQNRDVRQYVQGCGV

Variants of: B1
Details: Homo sapiens; pH 2.4; Thermal; DSC; glycine 0.05 M; reversible: yes; structure 1LZ1; whole UniProt chain shown

Variant	Tm	heat capacity change of unfolding	unfolding enthalpy (calorimetric)	unfolding enthalpy (van 't Hoff)
MKALIVLGLVLLSVTVQGKVFERCELARTLKRLGMDGYRGISLANWMCLAKWESGYNTRATNYNAGDRSTDYGIFQTNSRYWCNDGKTPGAVNACHLSCSALLQDNIADAVACAKRVVRDPQGIRAWVAWRNRCQNRDVRQYVQGCGV	52.9 °C	1.65 kcal/mol/K	90.3 kcal/mol	98.7 kcal/mol

Same assay, conditions: Homo sapiens; pH 2.62; Thermal; DSC; glycine 0.05 M; reversible: yes; structure 1LZ1; whole UniProt chain shown

Variant	Tm	heat capacity change of unfolding	unfolding enthalpy (calorimetric)	unfolding enthalpy (van 't Hoff)
MKALIVLGLVLLSVTVQGKVFERCELARTLKRLGMDGYRGISLANWMCLAKWESGYNTRATNYNAGDRSTDYGIFQTNSRYWCNDGKTPGAVNACHLSCSALLQDNIADAVACAKRVVRDPQGIRAWVAWRNRCQNRDVRQYVQGCGV	56.9 °C	1.67 kcal/mol/K	104 kcal/mol	105 kcal/mol

Same assay, conditions: Homo sapiens; pH 2.7; 64.9 °C; Thermal; DSC; glycine 0.05 M; reversible: yes; structure 1LZ1; whole UniProt chain shown

Variant	ddG of mutation (higher = less stable)
MKALIVLGLVLLSVTVQGKVFERCELARTLKRLGMDGYRGISLANWMCLAKWESGYNTRATNYNAGDRSTDYGIFQTNSRYWCNDGKTPGAVNACHLSCSALLQDNIADAVACAKRVVRDPQGIRAWVAWRNRCQNRDVRQYVQGCGV	2.22 kcal/mol
MKALIVLGLVLLSVTVQGKVFERCELARTLKRLGMDGYRGISLANWMCLAKWESGYNTRATNYNAGDRSTDYGMFQINSRYWCNDGKTPGAVNACHLSCSALLQDNIADAVACAKRVVRDPQGIRAWVAWRNRCQNRDVRQYVQGCGV	1.77 kcal/mol
MKALIVLGLVLLSVTVQGKVFERCELARTLKRLGMDGYRGISLANWMCLAKWESGYNTRATNYNAGDRSTDYGLFQINSRYWCNDGKTPGAVNACHLSCSALLQDNIADAVACAKRVVRDPQGIRAWVAWRNRCQNRDVRQYVQGCGV	0.1 kcal/mol

Same assay, conditions: Homo sapiens; pH 2.7; Thermal; DSC; glycine 0.05 M; reversible: yes; structure 1LZ1; whole UniProt chain shown

Variant	Tm	change of melting temperature, mutant - wild type (higher = more stable)	heat capacity change of unfolding	unfolding enthalpy (calorimetric)	unfolding enthalpy (van 't Hoff)
MKALIVLGLVLLSVTVQGKVFERCELARTLKRLGMDGYRGISLANWMCLAKWESGYNTRATNYNAGDRSTDYGIFQTNSRYWCNDGKTPGAVNACHLSCSALLQDNIADAVACAKRVVRDPQGIRAWVAWRNRCQNRDVRQYVQGCGV	64.9 °C	–	–	–	–
MKALIVLGLVLLSVTVQGKVFERCELARTLKRLGMDGYRGISLANWMCLAKWESGYNTRATNYNAGDRSTDYGMFQINSRYWCNDGKTPGAVNACHLSCSALLQDNIADAVACAKRVVRDPQGIRAWVAWRNRCQNRDVRQYVQGCGV	–	-5.8 °C	1.63 kcal/mol/K and 1.53 kcal/mol/K	97.3 kcal/mol and 106 kcal/mol	107 kcal/mol and 115 kcal/mol
MKALIVLGLVLLSVTVQGKVFERCELARTLKRLGMDGYRGISLANWMCLAKWESGYNTRATNYNAGDRSTDYGLFQINSRYWCNDGKTPGAVNACHLSCSALLQDNIADAVACAKRVVRDPQGIRAWVAWRNRCQNRDVRQYVQGCGV	64.6 °C and 64.9 °C	-0.3 °C	1.41 kcal/mol/K	107 kcal/mol	119 kcal/mol

Same assay, conditions: Homo sapiens; pH 2.8; Thermal; DSC; glycine 0.05 M; reversible: yes; structure 1LZ1; whole UniProt chain shown

Variant	Tm	heat capacity change of unfolding	unfolding enthalpy (calorimetric)	unfolding enthalpy (van 't Hoff)
MKALIVLGLVLLSVTVQGKVFERCELARTLKRLGMDGYRGISLANWMCLAKWESGYNTRATNYNAGDRSTDYGIFQTNSRYWCNDGKTPGAVNACHLSCSALLQDNIADAVACAKRVVRDPQGIRAWVAWRNRCQNRDVRQYVQGCGV	59.5 °C	1.17 kcal/mol/K	106 kcal/mol	110 kcal/mol

Same assay, conditions: Homo sapiens; pH 2.99; Thermal; DSC; glycine 0.05 M; reversible: yes; structure 1LZ1; whole UniProt chain shown

Variant	Tm	heat capacity change of unfolding	unfolding enthalpy (calorimetric)	unfolding enthalpy (van 't Hoff)
MKALIVLGLVLLSVTVQGKVFERCELARTLKRLGMDGYRGISLANWMCLAKWESGYNTRATNYNAGDRSTDYGIFQTNSRYWCNDGKTPGAVNACHLSCSALLQDNIADAVACAKRVVRDPQGIRAWVAWRNRCQNRDVRQYVQGCGV	62.9 °C	1.39 kcal/mol/K	107 kcal/mol	107 kcal/mol

Same assay, conditions: Homo sapiens; pH 3.15; Thermal; DSC; glycine 0.05 M; reversible: yes; structure 1LZ1; whole UniProt chain shown

Variant	Tm	heat capacity change of unfolding	unfolding enthalpy (calorimetric)	unfolding enthalpy (van 't Hoff)
MKALIVLGLVLLSVTVQGKVFERCELARTLKRLGMDGYRGISLANWMCLAKWESGYNTRATNYNAGDRSTDYGIFQTNSRYWCNDGKTPGAVNACHLSCSALLQDNIADAVACAKRVVRDPQGIRAWVAWRNRCQNRDVRQYVQGCGV	64.9 °C	1.2 kcal/mol/K	111 kcal/mol	119 kcal/mol

Same assay, conditions: Homo sapiens; pH 2.54; Thermal; DSC; glycine 0.05 M; reversible: yes; structure 1LZ1; whole UniProt chain shown

Variant	Tm	heat capacity change of unfolding	unfolding enthalpy (calorimetric)	unfolding enthalpy (van 't Hoff)
MKALIVLGLVLLSVTVQGKVFERCELARTLKRLGMDGYRGISLANWMCLAKWESGYNTRATNYNAGDRSTDYGMFQINSRYWCNDGKTPGAVNACHLSCSALLQDNIADAVACAKRVVRDPQGIRAWVAWRNRCQNRDVRQYVQGCGV	56.3 °C	1.39 kcal/mol/K	92.5 kcal/mol	103 kcal/mol

Same assay, conditions: Homo sapiens; pH 2.83; Thermal; DSC; glycine 0.05 M; reversible: yes; structure 1LZ1; whole UniProt chain shown

Variant	Tm	heat capacity change of unfolding	unfolding enthalpy (calorimetric)	unfolding enthalpy (van 't Hoff)
MKALIVLGLVLLSVTVQGKVFERCELARTLKRLGMDGYRGISLANWMCLAKWESGYNTRATNYNAGDRSTDYGMFQINSRYWCNDGKTPGAVNACHLSCSALLQDNIADAVACAKRVVRDPQGIRAWVAWRNRCQNRDVRQYVQGCGV	61.3 °C	1.72 kcal/mol/K	101 kcal/mol	110 kcal/mol

Same assay, conditions: Homo sapiens; pH 3.02; Thermal; DSC; glycine 0.05 M; reversible: yes; structure 1LZ1; whole UniProt chain shown

Variant	Tm	heat capacity change of unfolding	unfolding enthalpy (calorimetric)	unfolding enthalpy (van 't Hoff)
MKALIVLGLVLLSVTVQGKVFERCELARTLKRLGMDGYRGISLANWMCLAKWESGYNTRATNYNAGDRSTDYGMFQINSRYWCNDGKTPGAVNACHLSCSALLQDNIADAVACAKRVVRDPQGIRAWVAWRNRCQNRDVRQYVQGCGV	64.2 °C	1.43 kcal/mol/K	105 kcal/mol	113 kcal/mol

Same assay, conditions: Homo sapiens; pH 3.11; Thermal; DSC; glycine 0.05 M; reversible: yes; structure 1LZ1; whole UniProt chain shown

Variant	Tm	heat capacity change of unfolding	unfolding enthalpy (calorimetric)	unfolding enthalpy (van 't Hoff)
MKALIVLGLVLLSVTVQGKVFERCELARTLKRLGMDGYRGISLANWMCLAKWESGYNTRATNYNAGDRSTDYGMFQINSRYWCNDGKTPGAVNACHLSCSALLQDNIADAVACAKRVVRDPQGIRAWVAWRNRCQNRDVRQYVQGCGV	65.9 °C	1.53 kcal/mol/K	107 kcal/mol	116 kcal/mol

Same assay, conditions: Homo sapiens; pH 2.48; Thermal; DSC; glycine 0.05 M; reversible: yes; structure 1LZ1; whole UniProt chain shown

Variant	Tm	heat capacity change of unfolding	unfolding enthalpy (calorimetric)	unfolding enthalpy (van 't Hoff)
MKALIVLGLVLLSVTVQGKVFERCELARTLKRLGMDGYRGISLANWMCLAKWESGYNTRATNYNAGDRSTDYGLFQINSRYWCNDGKTPGAVNACHLSCSALLQDNIADAVACAKRVVRDPQGIRAWVAWRNRCQNRDVRQYVQGCGV	61.2 °C	1.41 kcal/mol/K	103 kcal/mol	113 kcal/mol

Same assay, conditions: Homo sapiens; pH 2.65; Thermal; DSC; glycine 0.05 M; reversible: yes; structure 1LZ1; whole UniProt chain shown

Variant	Tm	heat capacity change of unfolding	unfolding enthalpy (calorimetric)	unfolding enthalpy (van 't Hoff)
MKALIVLGLVLLSVTVQGKVFERCELARTLKRLGMDGYRGISLANWMCLAKWESGYNTRATNYNAGDRSTDYGLFQINSRYWCNDGKTPGAVNACHLSCSALLQDNIADAVACAKRVVRDPQGIRAWVAWRNRCQNRDVRQYVQGCGV	64 °C	1.55 kcal/mol/K	105 kcal/mol	119 kcal/mol

Same assay, conditions: Homo sapiens; pH 2.96; Thermal; DSC; glycine 0.05 M; reversible: yes; structure 1LZ1; whole UniProt chain shown

Variant	Tm	heat capacity change of unfolding	unfolding enthalpy (calorimetric)	unfolding enthalpy (van 't Hoff)
MKALIVLGLVLLSVTVQGKVFERCELARTLKRLGMDGYRGISLANWMCLAKWESGYNTRATNYNAGDRSTDYGLFQINSRYWCNDGKTPGAVNACHLSCSALLQDNIADAVACAKRVVRDPQGIRAWVAWRNRCQNRDVRQYVQGCGV	68.7 °C	1.27 kcal/mol/K	112 kcal/mol	125 kcal/mol
